Laboratory results taken from US20200031947A1 (RINAT NEUROSCIENCE, published 2020).

T1: human GITR (hGITR), soluble analyte (human, UniProt Q9Y5U5 26-162)
T1 sequence: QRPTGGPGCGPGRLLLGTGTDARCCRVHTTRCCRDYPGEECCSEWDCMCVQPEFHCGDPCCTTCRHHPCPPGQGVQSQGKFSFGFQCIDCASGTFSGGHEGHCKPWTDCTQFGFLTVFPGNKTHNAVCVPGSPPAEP


Assays:
[1] = target: T1, human GITR (hGITR), soluble analyte; experiment: SPR (Biacore T200), 37 C; antibody captured on anti-human Fc chip, GITR as analyte; 1:1 Langmuir fit
Procedure: (§1) The sensor chip preparation was performed at 25° C. with a running buffer of 10 mM HEPES, 150 mM NaCl, 0.05% (v/v) Tween-20, pH 7.4. An anti-human Fc sensor chip was made by activating all flow cells of a Biacore CM4 sensor chip with a 1:1 (v/v) mixture of 400 mM EDC and 100 mM NHS for 7 minutes, at a flow rate of 10 μL/min. An anti-human Fc reagent (Goat Anti-Human IgG Fc, SouthernBiotech Catalog #2081-01) was diluted to […] in 10 mM Sodium Acetate pH 4.5 and injected on all flow cells for 7 minutes at 20 μL/min. All flow cells were blocked with 100 mM ethylenediamine in 150 mM Borate buffer pH 8.5 for 7 minutes at 10 μL/min.
(§2) Antibodies were captured from undiluted supernatants onto downstream flow cells (flow cells 2, 3 and 4) at a flow rate of 10 μL/min for 2 minutes. Different antibodies were captured on each flow cell. Flow cell 1 was used as a reference surface. Following capture of antibodies, analyte (buffer, hGITR, or cyGITR) was injected at 30 μL/min on all flow cells for two minutes. After the analyte injection, dissociation was monitored for 10 minutes followed by regeneration of all flow cells with three 1-minute injections of 75 mM Phosphoric Acid. For each captured antibody, the following analyte injections were performed: buffer, 20 nM hGITR, 200 nM hGITR, 20 nM cyGITR and 200 nM cyGITR. Buffer cycles were collected for each captured antibody for double-referencing purposes (double-referencing as described in Myszka, J. Mol. Recognit. 12:279-284 (1999). The double-referenced sensorgrams were fit globally to a simple 1:1 Langmuir with mass transport binding model.

[2] = target: T2, cynomolgus GITR (cyGITR), soluble analyte (cynomolgus); experiment: as above
T2 construct: Soluble analyte in SPR; construct not described; also called cGITR
Procedure: as §1, §2

Kd [1] [nM]	koff [1] [s⁻¹]	kon [1] [M⁻¹ s⁻¹]	t1/2 [1] [s]	Kd [2] [nM]	koff [2] [s⁻¹]	kon [2] [M⁻¹ s⁻¹]	t1/2 [2] [s]	Binder
17	0.019	1.1e+06	36.6	13	0.0088	670000	78	h3G7 AM (antibody, V domains shown, Whole IgG captured on an anti-human Fc chip) VH: QVQLVQSGAEVKKPGASVKVSCKASGYTFTGATMNWVRQAPGQGLEWMGLINPYNGGIRYNQKFKGRVTMTRDTSTSTVYMELSSLRSEDTAVYYCARIGGYYDSMDYWGQGTLVTVSS VL: DIQMTQSPSSLSASVGDRVTITCRASESVDPRGINFLNWYQQKPGKAPKLLIYAASNQAKGVPSRFSGSGSGTDFTLTISSLQPEDFATYYCQQALELPWTFGGGTKVEIK
22	0.015	690000	45.6	69	0.023	330000	30.6	h3G7 LF (antibody, V domains shown, Whole IgG captured on an anti-human Fc chip) VH: QVQLVQSGAEVKKPGASVKVSCKASGYTFTGATMNWVRQAPGQGLEWMGLINPYTGGIRYNQKFKGRVTMTRDTSTSTVYMELSSLRSEDTAVYYCARIGGYYDTMDYWGQGTLVTVSS VL: DIQMTQSPSSLSASVGDRVTITCRASESVEPRGINFLNWYQQKPGKAPKLLIYAASQASKGVPSRFSGSGSGTDFTLTISSLQPEDFATYYCQQALELPWTFGGGTKVEIK
> 100	0.0563	–	12.6	> 100	–	–	–	h10H2 HU (antibody, V domains shown, Whole IgG captured on an anti-human Fc chip) VH: QVQLVQSGAEVKKPGSSVKVSCKASGGTFSRYWIEWVRQAPGQGLEWMGEILPGSGVTNYNEKFKGRVTITADESTSTAYMELSSLRSEDTAVYYCARKGTYYAMDYWGQGTSVTVSS VL: EIVLTQSPGTLSLSPGERATLSCRASQSIGTSIHWYQQKPGQAPRLLIYYASESVSGIPDRFSGSGSGTDFTLTISRLEPEDFAVYYCQQTYSWPATFGQGTKVEIK
6.6	0.00154	233000	450	> 100	0.011	–	66	h10H2 AM (antibody, V domains shown, Whole IgG captured on an anti-human Fc chip) VH: QVQLVQSGAEVKKPGSSVKVSCKASGGTFSRYWIEWVRQAPGQGLEWMGEILPGSGVTFENEKFKGRVTITADESTSTAYMELSSLRSEDTAVYYCARKGRYYAMDYWGQGTLVTVSS VL: EIVLTQSPGTLSLSPGERATLSCRASQSIGTSIHWYQQKPGQAPRLLIYYASESVSGIPDRFSGSGSGTDFTLTISRLEPEDFAVYYCQQTYSWPATFGQGTKVEIK
